Results from patent US20090111753A1, “Nogo-A Polypeptide Fragments, Variant Nogo Receptor-1 Polypeptides, and Uses Thereof” (Yale University, priority 2004, published 2009).

How the values were obtained:
E13 chick DRG neurons = assay: AP fusion protein binding to dissociated E13 chick DRG neurons
Source text: FIG. 1E. Binding of AP fused Amino-Nogo fragments to dissociated E13 chick DRG neurons. Conditioned media from HEK293T cells containing AP fusion protein as indicated were applied to dissociated E13 chick DRG neurons and bound AP was stained.
If these Amino-Nogo fragments are to play a role in regulating neurite outgrowth then they would be expected to bind to neuronal processes. Previously, we have shown that AP-Nogo-66 binds to NgR on DRG processes (Fournier, A. E., et al., Nature 409:341-346 (2001)).

NgR = molecular target: T1, NgR (Homo sapiens, UniProt Q9BZR6); assay: AP fusion protein binding to NgR expressing COS-7 cells; details: AP fused Amino-Nogo fragments in conditioned media on NgR expressing COS-7 cells; 'No binding at' cells continue on the next line: AmNg A 150 nM; a.a. 1000-1018, a.a. 1005-1018, Amino of NgC 25 nM; a.a. 950-1004 50 nM; Amino of NgB 100 nM
T1 construct: expressed in transfected cells; host or cells: COS-7
T1 sequence (Q9BZR6 27-447): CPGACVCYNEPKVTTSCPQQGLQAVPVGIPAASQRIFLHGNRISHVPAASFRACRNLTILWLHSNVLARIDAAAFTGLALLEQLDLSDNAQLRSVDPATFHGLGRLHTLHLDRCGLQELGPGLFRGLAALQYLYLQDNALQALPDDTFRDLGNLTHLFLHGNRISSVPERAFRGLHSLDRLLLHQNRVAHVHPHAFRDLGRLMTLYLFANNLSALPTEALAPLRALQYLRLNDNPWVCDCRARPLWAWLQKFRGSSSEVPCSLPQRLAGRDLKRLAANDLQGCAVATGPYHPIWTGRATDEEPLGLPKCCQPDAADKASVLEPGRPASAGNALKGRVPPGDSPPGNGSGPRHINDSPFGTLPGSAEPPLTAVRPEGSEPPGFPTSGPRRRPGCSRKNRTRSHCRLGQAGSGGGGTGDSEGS
Source text: Several alkaline phosphatase (AP) fusion proteins containing various Nogo-A segments derived from regions between the amino terminus and the first hydrophobic segment were examined to identify the mechanism of Amino-Nogo-A action. To generate additional AP fusion proteins, human amino Nogo fragments were amplified and ligated to the pcAP6 vector digested with restriction enzymes EcoRI and XhoI as described (Fournier, A. E., et al., Nature 409:341-346 (2001)). Plasmids were then transfected into HEK293T cells and conditioned media were collected after 7 days. None of these fragments bind with high affinity to non-transfected COS-7 cells. […] This binding is saturable with a Kd indistinguishable from that for AP-Nogo-66 association with NgR (Table I). To better define the region responsible for Amino-Nogo interaction with NgR, a range of truncation mutants of Amino-Nogo were examined as AP fusion proteins. […] In fact, the NgR-interacting segment of Amino-Nogo is fully accounted for in the extreme carboxyl 24 amino acids (aa 995-1018, Amino-Nogo-A-24) (Table I and FIG. 1D). […] We named this domain (aa 995-1013) as Amino-Nogo-A-19.
Binding Kds for AP fused Amino-Nogo fragments were measured by applying conditioned media containing AP fusion protein to NgR expressing COS-7 cells. Bound AP was stained and measured.
It has been recognized that the Amino-Nogo-A protein inhibits non-neuronal cell spreading and axonal outgrowth when the protein is substrate bound (Chen, M. S., et al., Nature 403:434-439 (2000); Fournier, A. E., et al., Nature 409:341-346 (2001)). […] The later domain has been termed Δ20. To determine whether the NgR-interacting aa of Amino-Nogo-A described in Example 1 regulate cell spreading and axonal outgrowth, various fragments were expressed as GST fusion proteins and purified from E. coli. To generate GST fusion proteins, amino Nogo fragments were cloned in pGEX2T (Amersham Pharmacia). Native and soluble GST fusion proteins were expressed and purified as described (GrandPre, T., et al., Nature 403:439-444 (2000)). COS-7 binding assays were done as described (Fournier, A. E., et al., Nature 409:341-346 (2001)). Bound AP to COS-7 cells was measured using NIH image software. Fibroblast spreading and cDRG outgrowth assay were done as described (Fournier, A. E., et al., Nature 409:341-346 (2001)) with some modifications. Briefly, 50 μl of purified GST fusion protein or peptides diluted in PBS was pipetted into polylysine precoated 96 well plates (Becton Dickson Biocoat plates) and dried overnight at room temperature. For fibroblast spreading assay, subconfluent COS-7 cells were then plated for 1 hour in serum containing medium before fixation and staining with rho damine-phalloidin.

binding to DRG axons/neurons (E13 chick DRG neurons): binds to DRG axons
NgR Kd (nM) (NgR): No Binding
B1: a.a. 181-864 (AmNg A): AP fusion protein of human Amino-Nogo fragment A, aa 181-864 of Nogo-A (protein)
chain: SSGSVDETLFALPAASEPVIRSSAENMDLKEQPGNTISAGQEDFPSVLLETAASLPSLSPLSAASFKEHEYLGNLSTVLPTEGTLQENVSEASKEVSEKAKTLLIDRDLTEFSELEYSEMGSSFSVSPKAESAVIVANPREEIIVKNKDEEEKLVSNNILHNQQELPTALTKLVKEDEVVSSEKAKDSFNEKRVAVEAPMREEYADFKPFERVWEVKDSKEDSDMLAAGGKIESNLESKVDKKCFADSLEQTNHEKDSESSNDDTSFPSTPEGIKDRSGAYITCAPFNPAATESIATNIFPLLGDPTSENKTDEKKIEEKKAQIVTEKNTSTKTSNPFLVAAQDSETDYVTTDNLTKVTEEVVANMPEGLTPDLVQEACESELNEVTGTKIAYETKMDLVQTSEVMQESLYPAAQLCPSFEESEATPSPVLPDIVMEAPLNSAVPSAGASVIQPSSSPLEASSVNYESIKHEPENPPPYEEAMSVSLKKVSGIKEEIKEPENINAALQETEAPYISIACDLIKETKLSAEPAPDFSDYSEMAKVEQPVPDHSELVEDSSPDSEPVDLFSDDSIPDVPQKQDETVMLVKESLTETSFESMIEYENKEKLSALPPEGGKPYLESFKLSLDNTKDTLLPDEVSTLSKKEKIPLQMEELSTAVYSNDDLFISKEAQIRETETFSDSSP
modifications: left off: large carriers
notes: AP fusion protein of human Amino-Nogo fragment A, aa 181-864 of Nogo-A
